The values below come from the Immune Epitope Database (IEDB).

The target of assay [1] is HLA-B*15:01. As to the kind of experiment: IEDB peptide-MHC binding, purified MHC/competitive/radioactivity; filed as Kd, often an IC50 or EC50 that approximates it; ≥ and ≤ were set here for values at or beyond the usual limits of such assays.
The target of a further assay is HLA-B*08:01. Described as above.
Assay [2] addresses HLA-A*01:01. Described as above.
In a further assay the target is HLA-A*69:01. As to the kind of experiment: IEDB peptide-MHC binding, purified MHC/direct/fluorescence; filed as Kd, often an IC50 or EC50 that approximates it; ≥ and ≤ were set here for values at or beyond the usual limits of such assays. The conditions noted are these: source organism: SARS-CoV1.
Assay [3] deals with HLA-B*15:01. The description is as above. Particulars: source organism: SARS-CoV1.
Assay [4] has as its target HLA-A*03:01. The description is as above. Particulars: source organism: SARS-CoV1.
The target of another assay is HLA-A*02:02. As to the kind of experiment: IEDB peptide-MHC binding, purified MHC/competitive/radioactivity; filed as Kd, often an IC50 or EC50 that approximates it; ≥ and ≤ were set here for values at or beyond the usual limits of such assays. Particulars: source organism: SARS coronavirus Tor2.
The target in a further assay is HLA-A*02:03. The description is as above. The conditions noted are these: source organism: SARS coronavirus Tor2.
Another assay has as its target HLA-A*02:06. Described as above. Particulars: source organism: SARS coronavirus Tor2.
The target of assay [5] is HLA-A*02:01. As to the kind of experiment: IEDB peptide-MHC binding, purified MHC/competitive/fluorescence; filed as Kd, often an IC50 or EC50 that approximates it; ≥ and ≤ were set here for values at or beyond the usual limits of such assays.
The target of assay [6] is HLA-B*15:01. The assay is described as above. Particulars: source organism: Bacillus cereus G9241.
Assay [7] has as its target HLA-A*02:01. As to the kind of experiment: IEDB peptide-MHC binding, purified MHC/competitive/radioactivity; filed as Kd, often an IC50 or EC50 that approximates it; ≥ and ≤ were set here for values at or beyond the usual limits of such assays.
The target of the next assay is HLA-A*30:02. The assay is described as above.
Assay [8] has as its target HLA-A*03:01. Described as above. Particulars: source organism: Dengue virus 4 Philippines/H241/1956.
For another assay, the target named is HLA-B*40:01. The assay is described as above.
In another assay the target is HLA-A*26:01. The assay is described as above.
Another assay addresses HLA-B*35:01. The description is as above.
A further assay concerns the target HLA-B*07:02. The assay is described as above.
The target of a further assay is HLA-B*51:01. The assay is described as above. Particulars: source organism: Dengue virus 1 Brazil/97-11/1997.
In assay [9] the target is HLA-A*01:01. As to the kind of experiment: IEDB peptide-MHC binding, purified MHC/direct/fluorescence; filed as Kd, often an IC50 or EC50 that approximates it; ≥ and ≤ were set here for values at or beyond the usual limits of such assays. The conditions noted are these: source organism: SARS-CoV1.
For another assay, the target named is HLA-B*58:01. The description is as above. Particulars: source organism: SARS-CoV1.
A further assay deals with HLA-A*11:01. The assay is described as above. Particulars: source organism: SARS-CoV1.
The target in the next assay is HLA-A*29:02. As to the kind of experiment: IEDB peptide-MHC binding, purified MHC/competitive/radioactivity; filed as Kd, often an IC50 or EC50 that approximates it; ≥ and ≤ were set here for values at or beyond the usual limits of such assays. The conditions noted are these: source organism: SARS coronavirus Tor2.
A further assay has as its target HLA-A*24:02. The assay is described as above. Particulars: source organism: SARS coronavirus Tor2.
For the next assay, the target named is HLA-A*23:01. The description is as above. Particulars: source organism: SARS coronavirus Tor2.
The mark [10] stands for this setting: source organism: Dengue virus 2 Jamaica/1409/1983.
Setting [11] is: source organism: Vaccinia virus WR.
Where [12] appears, read: source organism: Dengue virus 3 Martinique/1243/1999.
The mark [13] stands for this setting: source organism: Dengue virus 1 Brazil/97-11/1997.
Where [14] appears, read: source organism: Dengue virus 4 Philippines/H241/1956.
[15] abbreviates: source organism: SARS coronavirus Tor2.

Broadly, the Kd is the constant that tells how readily two partners part at equilibrium. In the case of LIIMDEAHF, in the assay with HLA-B*15:01 [1] (setting [10]), the Kd is 19 nM.
On to SEIKRGLFF, for which, in the assay with HLA-B*15:01 [1] (setting [11]), the Kd turned out to be 323 nM.
On the same count and under the same terms, to ANISTILYF belongs 128 nM.
Regarding FCSHHFHEL, the Kd with HLA-B*08:01 (setting [12]) is 135 nM.
On to RRKRSVTMLL, for which the Kd with HLA-B*08:01 (setting [13]) was found to be 3650 nM.
Consider TVIDLEPISY, for which the Kd in the assay with HLA-A*01:01 [2] (setting [14]) is 8390 nM; with HLA-B*15:01 [1] (setting [14]), 1.36 nM.
On to LLALQQLEV, for which the Kd with HLA-A*69:01 worked out at 242 nM; in the assay with HLA-B*15:01 [3] it was 3790 nM; with HLA-A*03:01 [4] it was 2020 nM; in the assay with HLA-A*02:02, 0.138 nM; with HLA-A*02:03, 0.295 nM; with HLA-A*02:06, 41.9 nM. For the same sequence, in the assay with HLA-A*02:01 [5] (source organism: SARS-CoV1), the Kd was 2.7 nM.
Turning to AINVEKIEL, the Kd with HLA-A*02:01 [5] (setting [11]) is ≥ 20000 nM.
RTKAIGLNF showed a Kd in the assay with HLA-B*15:01 [6] of 84.7 nM.
For the sequence SMPDFDLHL, the Kd with HLA-A*02:01 [7] (source organism: Homo sapiens) was 5.2 nM.
NQYLLTMFF: the Kd with HLA-B*15:01 [1] (setting [11]) was 1.21 nM.
For the sequence TTAEEAAGI, the Kd with HLA-A*02:01 [7] (source organism: Homo sapiens) came out at 4170 nM.
Regarding AGRRSVSGDL, the equilibrium dissociation constant (Kd) in the assay with HLA-B*08:01 (setting [13]) is 9260 nM.
Consider LLKFRVESC, for which the Kd with HLA-B*08:01 (source organism: Vaccinia virus Copenhagen) stood at 74.4 nM.
On to LSEKWFTHA, for which, in the assay with HLA-B*15:01 [1] (setting [11]), the Kd worked out at 19100 nM.
FQTLMHSPF gave a Kd in the assay with HLA-B*15:01 [6] of 23.1 nM.
On to KRKLRTLIL, for which the Kd with HLA-B*08:01 (setting [13]) was 462 nM.
On to ALLAGFMAY, for which the Kd with HLA-A*30:02 (setting [14]) came out at 80 nM; with HLA-B*15:01 [1] (setting [14]), 1.14 nM; with HLA-A*03:01 [8], 1.67 nM.
For EIFKHLVFF, the Kd with HLA-B*15:01 [1] (setting [11]) worked out at 12.2 nM.
Turning to ILIEGVFFA, the Kd in the assay with HLA-A*02:01 [7] (source organism: Human alphaherpesvirus 2) came to 0.16 nM.
In the case of LEYTIVITPH, in the assay with HLA-B*40:01 (setting [10]), the Kd came to 2470 nM.
As to QLQPFLQPQL, the Kd with HLA-A*02:01 [7] (source organism: Triticum aestivum) was ≥ 10000 nM.
As to MLVTPSMAM, the dissociation constant Kd was 6420 nM with HLA-A*26:01 (setting [13]), 442 nM with HLA-B*35:01 (setting [13]) and 3.06 nM with HLA-B*15:01 [1] (setting [13]).
On to YMGEDGCWY, for which the figures for the Kd with HLA-A*30:02 (setting [12]), with HLA-A*01:01 [2] (setting [12]) and with HLA-B*15:01 [1] (setting [12]) were ≥ 36900 nM, 177 nM and 14.8 nM, respectively.
LPQHLTLRAQ: the Kd with HLA-B*07:02 (setting [13]) is 265 nM; with HLA-B*35:01 (setting [13]), 520 nM; with HLA-B*51:01, ≥ 31700 nM.
With QETWNRQDLL, the Kd with HLA-B*40:01 (setting [13]) amounted to 9.21 nM.
Consider TQDLFLPFY, for which the Kd is 1810 nM in the assay with HLA-A*01:01 [9]; ≥ 31500 nM in the assay with HLA-B*58:01; 424 nM with HLA-A*11:01; 1710 nM with HLA-B*15:01 [3]; 16800 nM with HLA-A*26:01 (setting [15]); 426 nM with HLA-A*29:02. Also, the Kd with HLA-A*30:02 (setting [15]) is 5.13 nM; with HLA-A*24:02 it was ≥ 77600 nM; in the assay with HLA-A*23:01 it was ≥ 67400 nM.
Turning to LNINKNGSF, the Kd with HLA-B*15:01 [1] (setting [11]) amounted to 479 nM.
On to VIEEVMNIV, for which the Kd in the assay with HLA-A*02:01 [7] (source organism: Lassa virus GA391) came out at 6250 nM.
Take TPQPKPGTRM: the figures for the dissociation constant (Kd) in the assay with HLA-B*07:02 (setting [14]) and in the assay with HLA-B*35:01 (setting [14]) were 39.9 nM and 177 nM, respectively.
For FQNWGIESI, the equilibrium dissociation constant (Kd) with HLA-A*02:01 [5] (source organism: Influenza A virus (A/Wilson-Smith/1933(H1N1))) stood at 2.3 nM.
